The source of these data is paper PMC3796022 (Biochemistry, 2013).

T1: αA66-80 peptide (human)
T1 peptide: SDRDKFVIFLDVKHF

B1: recombinant human αB-crystallin (natural protein, UniProt P02511 1-175, looked up)
chain: MDIAIHHPWIRRPFFPFHSPSRLFDQFFGEHLLESDLFPTSTSLSPFYLRPPSFLRAPSWFDTGLSEMRLEKDRFSVNLDVKHFSPEELKVKVLGDVIEVHGKHEERQDEHGFISREFHRKYRIPADVDPLTITSSLSSDGVLTVNGPRKQVSGPERTIPITREEKPAVTAAPKK

Data set [1] deals with the molecule itself. The data set is described as follows: cross-linking.
Data set [2] addresses B1. Nature of the data set: cross-linking.
Data set [3] deals with T1, αA66-80 peptide. Nature of the data set: bis-ANS fluorescence.

Consider B1, for which the binding result in data set [1] is on record as “binds”.
Turning to SDRDKFVIFLDVKHFK (biotin on the added C-terminal lysine (SDRDKFVIFLDVKHFK-Biotin)) [C-terminal biotinylated αA66-80], the binding result in data set [2] was “binds”.
On to EEKPAVTAAPK [αB-crystallin C-terminal peptide 164–174], for which, in data set [3], the binding result was “binds”.
